US20050106661A1 (RIKEN, published 2005)

Experiments:
[1] = target: the molecule itself; assay: formation of multimer (light scattering); self-association
Procedure: The fluorescent protein was equilibrated with 50 mM HEPES (pH 7.5) and 150 mM KCl.

[2] = target: the molecule itself; assay: molecular weight by light scattering (34 kDa)

Protein	binding result [1]	binding result [2]
Azami-Green, fluorescent protein derived from Galaxea fascicularis (other, Expressed in E. coli with a C-terminal His-tag and purified on Ni-agarose; also called wild-type Azami-Green; fluorescent protein of the present invention derived from coral; not shown: C-terminal His-tag from the pET28 vector (NcoI/XhoI cloning)) MSVIKPEMKIKLCMRGTVNGHNFVIEGEGKGNPYEGTQILDLNVTEGAPLPFAYDILTTVFQYGNRAFTKYPADIQDYFKQTFPEGYHWERSMTYEDQGICTATSNISMRGDCFFYDIRFDGVNFPPNGPVMQKKTLKWEPSTEKMYVRDGVLKGDVNMALLLEGGGHYRCDFKTTYKAKKDVRLPDYHFVDHRIEILKHDKDYNKVKLYENAVARYSMLPSQAK	binds	–
mAG, monomeric mutant of Azami-Green (V123T, Y188A, F190K) (other, also called modified monomeric fluorescent protein) MSVIKPEMKIKLCMRGTVNGHNFVIEGEGKGNPYEGTQILDLNVTEGAPLPFAYDILTTVFQYGNRAFTKYPADIQDYFKQTFPEGYHWERSMTYEDQGICTATSNISMRGDCFFYDIRFDGTNFPPNGPVMQKKTLKWEPSTEKMYVRDGVLKGDVNMALLLEGGGHYRCDFKTTYKAKKDVRLPDAHKVDHRIEILKHDKDYNKVKLYENAVARYSMLPSQAK	–	no binding
